From patent US20210388087A1 (Chugai, published 2021)

T1: Human CD3eg linker (human)
T1 construct: Single-chain construct; also called recombinant human CD3
T1 chain: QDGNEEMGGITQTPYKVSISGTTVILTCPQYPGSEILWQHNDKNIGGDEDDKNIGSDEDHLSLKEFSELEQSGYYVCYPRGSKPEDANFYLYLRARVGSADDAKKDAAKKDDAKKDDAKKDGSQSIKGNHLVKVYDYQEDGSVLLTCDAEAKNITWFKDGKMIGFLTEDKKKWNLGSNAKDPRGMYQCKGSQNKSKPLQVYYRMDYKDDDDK

B1: H183/L072 VL P95D (antibody, name in Kabat numbering, V domains shown)
VH: QVQLVESGGGLVQPGRSLRLSCAASGFTFSNAWMHWVRQAPGKGLEWVAQIKDKGNAYAAYYAPSVKGRFTISRDDSKNSIYLQMNSLKTEDTAVYYCHYVHYASASTVLPAFGVDAWGQGTTVTVSS
VL: DIVMTQSPLSLPVTPGEPASISCQASQELVHMNRNTYLHWYQQKPGQAPRLLIYKVSNRFPGVPDRFSGSGSGTDFTLKISRVEAEDVGVYYCAQGTSVDFTFGQGTKLEIK
B2: H183/L072 VL P95H (antibody, name in Kabat numbering, V domains shown)
VH: QVQLVESGGGLVQPGRSLRLSCAASGFTFSNAWMHWVRQAPGKGLEWVAQIKDKGNAYAAYYAPSVKGRFTISRDDSKNSIYLQMNSLKTEDTAVYYCHYVHYASASTVLPAFGVDAWGQGTTVTVSS
VL: DIVMTQSPLSLPVTPGEPASISCQASQELVHMNRNTYLHWYQQKPGQAPRLLIYKVSNRFPGVPDRFSGSGSGTDFTLKISRVEAEDVGVYYCAQGTSVHFTFGQGTKLEIK
B3: H183/L072 VL Q24E (antibody, name in Kabat numbering, V domains shown)
VH: QVQLVESGGGLVQPGRSLRLSCAASGFTFSNAWMHWVRQAPGKGLEWVAQIKDKGNAYAAYYAPSVKGRFTISRDDSKNSIYLQMNSLKTEDTAVYYCHYVHYASASTVLPAFGVDAWGQGTTVTVSS
VL: DIVMTQSPLSLPVTPGEPASISCEASQELVHMNRNTYLHWYQQKPGQAPRLLIYKVSNRFPGVPDRFSGSGSGTDFTLKISRVEAEDVGVYYCAQGTSVPFTFGQGTKLEIK
B4: H183/L072 VL Q24L (antibody, name in Kabat numbering, V domains shown)
VH: QVQLVESGGGLVQPGRSLRLSCAASGFTFSNAWMHWVRQAPGKGLEWVAQIKDKGNAYAAYYAPSVKGRFTISRDDSKNSIYLQMNSLKTEDTAVYYCHYVHYASASTVLPAFGVDAWGQGTTVTVSS
VL: DIVMTQSPLSLPVTPGEPASISCLASQELVHMNRNTYLHWYQQKPGQAPRLLIYKVSNRFPGVPDRFSGSGSGTDFTLKISRVEAEDVGVYYCAQGTSVPFTFGQGTKLEIK
B5: H183/L072 VL Q24I (antibody, name in Kabat numbering, V domains shown)
VH: QVQLVESGGGLVQPGRSLRLSCAASGFTFSNAWMHWVRQAPGKGLEWVAQIKDKGNAYAAYYAPSVKGRFTISRDDSKNSIYLQMNSLKTEDTAVYYCHYVHYASASTVLPAFGVDAWGQGTTVTVSS
VL: DIVMTQSPLSLPVTPGEPASISCIASQELVHMNRNTYLHWYQQKPGQAPRLLIYKVSNRFPGVPDRFSGSGSGTDFTLKISRVEAEDVGVYYCAQGTSVPFTFGQGTKLEIK
B6: H183/L072 VL Q24M (antibody, name in Kabat numbering, V domains shown)
VH: QVQLVESGGGLVQPGRSLRLSCAASGFTFSNAWMHWVRQAPGKGLEWVAQIKDKGNAYAAYYAPSVKGRFTISRDDSKNSIYLQMNSLKTEDTAVYYCHYVHYASASTVLPAFGVDAWGQGTTVTVSS
VL: DIVMTQSPLSLPVTPGEPASISCMASQELVHMNRNTYLHWYQQKPGQAPRLLIYKVSNRFPGVPDRFSGSGSGTDFTLKISRVEAEDVGVYYCAQGTSVPFTFGQGTKLEIK
B7: H183/L072 VL Q24F (antibody, name in Kabat numbering, V domains shown)
VH: QVQLVESGGGLVQPGRSLRLSCAASGFTFSNAWMHWVRQAPGKGLEWVAQIKDKGNAYAAYYAPSVKGRFTISRDDSKNSIYLQMNSLKTEDTAVYYCHYVHYASASTVLPAFGVDAWGQGTTVTVSS
VL: DIVMTQSPLSLPVTPGEPASISCFASQELVHMNRNTYLHWYQQKPGQAPRLLIYKVSNRFPGVPDRFSGSGSGTDFTLKISRVEAEDVGVYYCAQGTSVPFTFGQGTKLEIK
B8: H183/L072 VL P95T (antibody, name in Kabat numbering, V domains shown)
VH: QVQLVESGGGLVQPGRSLRLSCAASGFTFSNAWMHWVRQAPGKGLEWVAQIKDKGNAYAAYYAPSVKGRFTISRDDSKNSIYLQMNSLKTEDTAVYYCHYVHYASASTVLPAFGVDAWGQGTTVTVSS
VL: DIVMTQSPLSLPVTPGEPASISCQASQELVHMNRNTYLHWYQQKPGQAPRLLIYKVSNRFPGVPDRFSGSGSGTDFTLKISRVEAEDVGVYYCAQGTSVTFTFGQGTKLEIK
B9: H183/L072 VL Q24A (antibody, name in Kabat numbering, V domains shown)
VH: QVQLVESGGGLVQPGRSLRLSCAASGFTFSNAWMHWVRQAPGKGLEWVAQIKDKGNAYAAYYAPSVKGRFTISRDDSKNSIYLQMNSLKTEDTAVYYCHYVHYASASTVLPAFGVDAWGQGTTVTVSS
VL: DIVMTQSPLSLPVTPGEPASISCAASQELVHMNRNTYLHWYQQKPGQAPRLLIYKVSNRFPGVPDRFSGSGSGTDFTLKISRVEAEDVGVYYCAQGTSVPFTFGQGTKLEIK
B10: H183/L072 VL P95S (antibody, name in Kabat numbering, V domains shown)
VH: QVQLVESGGGLVQPGRSLRLSCAASGFTFSNAWMHWVRQAPGKGLEWVAQIKDKGNAYAAYYAPSVKGRFTISRDDSKNSIYLQMNSLKTEDTAVYYCHYVHYASASTVLPAFGVDAWGQGTTVTVSS
VL: DIVMTQSPLSLPVTPGEPASISCQASQELVHMNRNTYLHWYQQKPGQAPRLLIYKVSNRFPGVPDRFSGSGSGTDFTLKISRVEAEDVGVYYCAQGTSVSFTFGQGTKLEIK
B11: H183/L072 VL Q24D (antibody, name in Kabat numbering, V domains shown)
VH: QVQLVESGGGLVQPGRSLRLSCAASGFTFSNAWMHWVRQAPGKGLEWVAQIKDKGNAYAAYYAPSVKGRFTISRDDSKNSIYLQMNSLKTEDTAVYYCHYVHYASASTVLPAFGVDAWGQGTTVTVSS
VL: DIVMTQSPLSLPVTPGEPASISCDASQELVHMNRNTYLHWYQQKPGQAPRLLIYKVSNRFPGVPDRFSGSGSGTDFTLKISRVEAEDVGVYYCAQGTSVPFTFGQGTKLEIK
B12: H183/L072 VL Q24S (antibody, name in Kabat numbering, V domains shown)
VH: QVQLVESGGGLVQPGRSLRLSCAASGFTFSNAWMHWVRQAPGKGLEWVAQIKDKGNAYAAYYAPSVKGRFTISRDDSKNSIYLQMNSLKTEDTAVYYCHYVHYASASTVLPAFGVDAWGQGTTVTVSS
VL: DIVMTQSPLSLPVTPGEPASISCSASQELVHMNRNTYLHWYQQKPGQAPRLLIYKVSNRFPGVPDRFSGSGSGTDFTLKISRVEAEDVGVYYCAQGTSVPFTFGQGTKLEIK
B13: H183/L072 VL Q24N (antibody, name in Kabat numbering, V domains shown)
VH: QVQLVESGGGLVQPGRSLRLSCAASGFTFSNAWMHWVRQAPGKGLEWVAQIKDKGNAYAAYYAPSVKGRFTISRDDSKNSIYLQMNSLKTEDTAVYYCHYVHYASASTVLPAFGVDAWGQGTTVTVSS
VL: DIVMTQSPLSLPVTPGEPASISCNASQELVHMNRNTYLHWYQQKPGQAPRLLIYKVSNRFPGVPDRFSGSGSGTDFTLKISRVEAEDVGVYYCAQGTSVPFTFGQGTKLEIK
B14: H183/L072 VL Q24G (antibody, name in Kabat numbering, V domains shown)
VH: QVQLVESGGGLVQPGRSLRLSCAASGFTFSNAWMHWVRQAPGKGLEWVAQIKDKGNAYAAYYAPSVKGRFTISRDDSKNSIYLQMNSLKTEDTAVYYCHYVHYASASTVLPAFGVDAWGQGTTVTVSS
VL: DIVMTQSPLSLPVTPGEPASISCGASQELVHMNRNTYLHWYQQKPGQAPRLLIYKVSNRFPGVPDRFSGSGSGTDFTLKISRVEAEDVGVYYCAQGTSVPFTFGQGTKLEIK
B15: H183/L072 VL Q24K (antibody, name in Kabat numbering, V domains shown)
VH: QVQLVESGGGLVQPGRSLRLSCAASGFTFSNAWMHWVRQAPGKGLEWVAQIKDKGNAYAAYYAPSVKGRFTISRDDSKNSIYLQMNSLKTEDTAVYYCHYVHYASASTVLPAFGVDAWGQGTTVTVSS
VL: DIVMTQSPLSLPVTPGEPASISCKASQELVHMNRNTYLHWYQQKPGQAPRLLIYKVSNRFPGVPDRFSGSGSGTDFTLKISRVEAEDVGVYYCAQGTSVPFTFGQGTKLEIK
B16: H183/L072 VL Q24R (antibody, name in Kabat numbering, V domains shown)
VH: QVQLVESGGGLVQPGRSLRLSCAASGFTFSNAWMHWVRQAPGKGLEWVAQIKDKGNAYAAYYAPSVKGRFTISRDDSKNSIYLQMNSLKTEDTAVYYCHYVHYASASTVLPAFGVDAWGQGTTVTVSS
VL: DIVMTQSPLSLPVTPGEPASISCRASQELVHMNRNTYLHWYQQKPGQAPRLLIYKVSNRFPGVPDRFSGSGSGTDFTLKISRVEAEDVGVYYCAQGTSVPFTFGQGTKLEIK
B17: H183/L072 VL P95K (antibody, name in Kabat numbering, V domains shown)
VH: QVQLVESGGGLVQPGRSLRLSCAASGFTFSNAWMHWVRQAPGKGLEWVAQIKDKGNAYAAYYAPSVKGRFTISRDDSKNSIYLQMNSLKTEDTAVYYCHYVHYASASTVLPAFGVDAWGQGTTVTVSS
VL: DIVMTQSPLSLPVTPGEPASISCQASQELVHMNRNTYLHWYQQKPGQAPRLLIYKVSNRFPGVPDRFSGSGSGTDFTLKISRVEAEDVGVYYCAQGTSVKFTFGQGTKLEIK
B18: H183/L072 VL Q24H (antibody, name in Kabat numbering, V domains shown)
VH: QVQLVESGGGLVQPGRSLRLSCAASGFTFSNAWMHWVRQAPGKGLEWVAQIKDKGNAYAAYYAPSVKGRFTISRDDSKNSIYLQMNSLKTEDTAVYYCHYVHYASASTVLPAFGVDAWGQGTTVTVSS
VL: DIVMTQSPLSLPVTPGEPASISCHASQELVHMNRNTYLHWYQQKPGQAPRLLIYKVSNRFPGVPDRFSGSGSGTDFTLKISRVEAEDVGVYYCAQGTSVPFTFGQGTKLEIK
B19: H183/L072 VL P95Q (antibody, name in Kabat numbering, V domains shown)
VH: QVQLVESGGGLVQPGRSLRLSCAASGFTFSNAWMHWVRQAPGKGLEWVAQIKDKGNAYAAYYAPSVKGRFTISRDDSKNSIYLQMNSLKTEDTAVYYCHYVHYASASTVLPAFGVDAWGQGTTVTVSS
VL: DIVMTQSPLSLPVTPGEPASISCQASQELVHMNRNTYLHWYQQKPGQAPRLLIYKVSNRFPGVPDRFSGSGSGTDFTLKISRVEAEDVGVYYCAQGTSVQFTFGQGTKLEIK
B20: H183/L072 VL P95E (antibody, name in Kabat numbering, V domains shown)
VH: QVQLVESGGGLVQPGRSLRLSCAASGFTFSNAWMHWVRQAPGKGLEWVAQIKDKGNAYAAYYAPSVKGRFTISRDDSKNSIYLQMNSLKTEDTAVYYCHYVHYASASTVLPAFGVDAWGQGTTVTVSS
VL: DIVMTQSPLSLPVTPGEPASISCQASQELVHMNRNTYLHWYQQKPGQAPRLLIYKVSNRFPGVPDRFSGSGSGTDFTLKISRVEAEDVGVYYCAQGTSVEFTFGQGTKLEIK

Molecular target: T1, Human CD3eg linker
Assay: SPR; fold vs parent H183/L072

B1 and B2 are the same in “fold change of affinity” value: 0 fold for the first, 0 fold for the second.

Compared with B3, B4 is higher in “fold change of affinity” value: 0 fold for the first, 1.2 fold for the second.

First: B5
Second: B6
The “fold change of affinity” value of the first is higher: 1.2 fold for the first, 1.1 fold for the second.

Going from B7 to B8, the “fold change of affinity” value falls from 0.9 fold to 0 fold.

Going from B9 to B10, the “fold change of affinity” value falls from 1.1 fold to 0 fold.

Compared with B11, B12 is lower in “fold change of affinity” value: 1.2 fold for the first, 1.1 fold for the second.

First: B13
Second: B14
The “fold change of affinity” value of the first is lower: 1.1 fold for the first, 1.2 fold for the second.

B15 and B16 are the same in “fold change of affinity” value: 1 fold for the first, 1 fold for the second.

First: B17
Second: B18
The “fold change of affinity” value of the first is lower: 0 fold for the first, 1.1 fold for the second.

B19 and B20 are the same in “fold change of affinity” value: 0 fold for the first, 0 fold for the second.
